# In patent publication US20260266848A1, “COMPOSITIONS AND METHODS FOR DIAGNOSING AND TREATING DYSTONIA” (Duke University, priority 2023, published 2026):
# B1: Nap1l4 (protein, UniProt Q78ZA7 2-375, looked up)
# Nucleosome assembly protein …: AENSLSDGGPADSVEAAKNASNTEKLTDQVMQNPQVLAALQERLDNVSHTPSSYIETLPKAVKRRINALKQLQVRCAHIEAKFYEEVHDLERKYAALYQPLFDKRREFITGDVEPTDAESAWHSENEEEDKLAGDMKNKVVIAEKEAATVEELNPKGIPEFWFTIFRNVDMLSELVQEYDEPILKHLQDIKVKFSDPGQPMSFVLEFHFEPNDYFTNPVLTKTYKMKSEPDKADPFSFEGPEIVDCDGCTIDWKKGKNVTVKTIKKKQKHKGRGTVRTITKQVPNESFFNFFSPLKASGDGESLDEDSEFTLASDFEIGHFFRERIVPRAVLYFTGEAIEDDDNFEEGEEGEEEELEGDEEGEDEDDADVNPKV
# B2: Cxadr (protein, UniProt P97792 20-365, looked up)
# Coxsackievirus and adenovirus …: LSITTPEQRIEKAKGETAYLPCKFTLSPEDQGPLDIEWLISPSDNQIVDQVIILYSGDKIYDNYYPDLKGRVHFTSNDVKSGDASINVTNLQLSDIGTYQCKVKKAPGVANKKFLLTVLVKPSGTRCFVDGSEEIGNDFKLKCEPKEGSLPLQFEWQKLSDSQTMPTPWLAEMTSPVISVKNASSEYSGTYSCTVQNRVGSDQCMLRLDVVPPSNRAGTIAGAVIGTLLALVLIGAILFCCHRKRREEKYEKEVHHDIREDVPPPKSRTSTARSYIGSNHSSLGSMSPSNMEGYSKTQYNQVPSEDFERAPQSPTLAPAKVAAPNLSRMGAVPVMIPAQSKDGSIV
# B3: Fus (protein, UniProt P56959 1-518, looked up)
# RNA-binding protein FUS: MASNDYTQQATQSYGAYPTQPGQGYSQQSSQPYGQQSYSGYGQSADTSGYGQSSYGSSYGQTQNTGYGTQSAPQGYGSTGGYGSSQSSQSSYGQQSSYPGYGQQPAPSSTSGSYGGSSQSSSYGQPQSGGYGQQSGYGGQQQSYGQQQSSYNPPQGYGQQNQYNSSSGGGGGGGGGNYGQDQSSMSGGGGGGGYGNQDQSGGGGGGYGGGQQDRGGRGRGGGGGYNRSSGGYEPRGRGGGRGGRGGMGGSDRGGFNKFGGPRDQGSRHDSEQDNSDNNTIFVQGLGENVTIESVADYFKQIGIIKTNKKTGQPMINLYTDRETGKLKGEATVSFDDPPSAKAAIDWFDGKEFSGNPIKVSFATRRADFNRGGGNGRGGRGRGGPMGRGGYGGGGSGGGGRGGFPSGGGGGGGQQRAGDWKCPNPTCENMNFSWRNECNQCKAPKPDGPGGGPGGSHMGGNYGDDRRGRGGYDRGGYRGRGGDRGGFRGGRGGGDRGGFGPGKMDSRGEHRQDRRERPY
# B4: Impa1 (protein, UniProt O55023 1-277, looked up)
# Inositol monophosphatase 1: MADPWQECMDYAVILARQAGEMIREALKNEMDVMIKSSPADLVTVTDQKVEKMLMSSIKEKYPCHSFIGEESVAAGEKTVFTESPTWFIDPIDGTTNFVHRFPFVAVSIGFLVNKEMEFGIVYSCVEDKMYTGRKGKGAFCNGQKLQVSQQEDITKSLLVTELGSSRKPETLRIVLSNMEKLCSIPIHGIRSVGTAAVNMCLVATGGADAYYEMGIHCWDMAGAGIIVTEAGGVLMDVTGGPFDLMSRRIIAANSITLAKRIAKEIEIIPLQRDDES
# B5: Cnn3 (protein, UniProt Q9DAW9 1-330, looked up)
# Calponin-3: MTHFNKGPSYGLSAEVKNKIASKYDQQAEEDLRNWIEEVTGLGIGTNFQLGLKDGIILCELINKLQPGSVKKVNESSLNWPQLENIGNFIKAIQAYGMKPHDIFEANDLFENGNMTQVQTTLVALAGLAKTKGFHTTIDIGVKYAEKQTRRFDEGKLKAGQSVIGLQMGTNKCASQAGMTAYGTRRHLYDPKMQTDKPFDQTTISLQMGTNKGASQAGMLAPGTRRDIYDQKLTLQPVDNSTISLQMGTNKVASQKGMSVYGLGRQVYDPKYCAAPTEPVIHNGSQGTGTNGSEISDSDYQAEYPDEYHGEYPDDYPREYQYGDDQGIDY
# B6: Uso1 (protein, UniProt Q9Z1Z0 1-959, looked up)
# General vesicular transport …: MNFLRGVMGGQSAGPQHTEAETIQKLCDRVASSTLLDDRRNAVRALKSLSKKYRLEVGIQAMEHLIHVLQTDRSDSEIIAYALDTLYNIISNDEEEELEENSTRQSEDLGSQFTEIFIKQPENVTLLLSLLEEFDFHVRWPGVRLLTSLLKQLGPPVQQIILVSPMGVSRLMDLLADSREIIRNDGVLLLQALTRSNGAIQKIVAFENAFERLLDIITEEGNSDGGIVVEDCLILLQNLLKTNNSNQNFFKEGSYIQRMKPWFEVGEENSGWSAQKVTNLHLMLQLVRVLVSPTNPPGATSSCQKAMFQCGLLQQLCTILMATGIPADILTETINTVSEVIRGCQVNQDYFASVNAPSNPPRPAIVVLLMSMVNERQPFVLRCAVLYCFQCFLYKNEKGQGEIVATLLPSTIDATGNSVSAGQLLCGGLFSTDSLSNWCAAVALAHALQGNATQKEQLLRVQLATSIGNPPVSLLQQCTNILSQGSKIQTRVGLLMLLCTWLSNCPIAVTHFLHNSANVPFLTGQIAENLGEEEQLVQGLCALLLGISIYFNDNSLENYTKEKLKQLIEKRIGKENFIEKLGFISKHELYSRASQKPQPNFPSPEYMIFDHEFTKLVKELEGVITKAIYKSSEEDKKEEEVKKTLEQHDNIVTHYKNMIREQDLQLEELKQQVSTLKCQNEQLQTAVTQQASQIQQHKDQYNLLKVQLGKDNHHQGSHGDGAQVNGIQPEEISRLREEIEELKSQQALLQGQLAEKDSLIENLKSSQASGMSEQASATCPPRDPEQVAELKQELTALKSQLCSQSLEITRLQTENCELLQRAETLAKSVPVEGESEHVSAAKTTDVEGRLSALLQETKELKNEIKALSEERTAIQKQLDSSNSTIAILQTEKDKLDLEVTDSKKEQDDLLVLLADQDQKILSLKSKLKDLGHPVEEEDESGDQEDDDDEIDDGDKDQDI
# B7: Vapa (protein, UniProt Q9WV55 2-249, looked up)
# Vesicle-associated membrane …: ASASGAMAKHEQILVLDPPSDLKFKGPFTDVVTTNLKLQNPSDRKVCFKVKTTAPRRYCVRPNSGIIDPGSIVTVSVMLQPFDYDPNEKSKHKFMVQTIFAPPNISDMEAVWKEAKPDELMDSKLRCVFEMPNENDKLNDMEPSKAVPLNASKQDGPLPKPHSVSLNDTETRKLMEECKRLQGEMMKLSEENRHLRDEGLRLRKVAHSDKPGSTSAVSFRDNVTSPLPSLLVVIAAIFIGFFLGKFIL
# B8: Ube2n (protein, UniProt P61089 1-152, looked up)
# Ubiquitin-conjugating enzyme …: MAGLPRRIIKETQRLLAEPVPGIKAEPDESNARYFHVVIAGPQDSPFEGGTFKLELFLPEEYPMAAPKVRFMTKIYHPNVDKLGRICLDILKDKWSPALQIRTVLLSIQALLSAPNPDDPLANDVAEQWKTNEAQAIETARAWTRLYAMNNI
# B9: Hnrnph1 (protein, UniProt O35737 1-449, looked up)
# Heterogeneous nuclear …: MMLGAEGGEGFVVKVRGLPWSCSADEVQRFFSDCKIQNGAQGIRFIYTREGRPSGEAFVELESEDEVKLALKKDRETMGHRYVEVFKSNNVEMDWVLKHTGPNSPDTANDGFVRLRGLPFGCSKEEIVQFFSGLEIVPNGITLPVDFQGRSTGEAFVQFASQEIAEKALKKHKERIGHRYIEIFKSSRAEVRTHYDPPRKLMAMQRPGPYDRPGAGRGYNSIGRGAGFERMRRGAYGGGYGGYDDYNGYNDGYGFGSDRFGRDLNYCFSGMSDHRYGDGGSTFQSTTGHCVHMRGLPYRATENDIYNFFSPLNPVRVHIEIGPDGRVTGEADVEFATHEDAVAAMSKDKANMQHRYVELFLNSTAGASGGAYEHRYVELFLNSTAGASGGAYGSQMMGGMGLSNQSSYGGPASQQLSGGYGGGYGGQSSMSGYDQVLQENSSDFQSNIA
# B10: Gsto1 (protein, UniProt O09131 2-240, looked up)
# Glutathione S-transferase …: SGESSRSLGKGSAPPGPVPEGQIRVYSMRFCPFAQRTLMVLKAKGIRHEVININLKNKPEWFFEKNPLGLVPVLENSQGHLVTESVITCEYLDEAYPEKKLFPDDPYKKARQKMTLESFSKVPPLIASFVRSKRKEDSPNLREALENEFKKLEEGMDNYKSFLGGDSPSMVDYLTWPWFQRLEALELKECLAHTPKLKLWMAAMQQDPVASSHKIDAKTYREYLNLYLQDSPEACDYGL
# B11: Mdk (protein, UniProt P12025 23-140, looked up)
# Midkine: KKKEKVKKGSECSEWTWGPCTPSSKDCGMGFREGTCGAQTQRVHCKVPCNWKKEFGADCKYKFESWGACDGSTGTKARQGTLKKARYNAQCQETIRVTKPCTSKTKSKTKAKKGKGKD
# How the values were obtained:
# WT MEF EVs = test: Quantitative LC-MS/MS proteomics of EVs from ISRIB-treated WT MEF cultures; type: cell-based, mouse; settings: EV protein abundance, ISRIB-treated WT vs WT
# DYT-TOR1A MEF EVs = test: Quantitative LC-MS/MS proteomics of EVs from drug-treated DYT-TOR1A MEF cultures (ritonavir, salubrinal); type: cell-based, mouse; set-up: key to RTV Corrective Direction / RTV Corrective Direction, Grwd1 / RTV Corrective Direction, Srrm2 / RTV Corrective Direction, Rbm17 / RTV Corrective Direction, Dcaf8 / RTV Corrective Direction, Edil3 / RTV Corrective Direction, Timp3 / RTV Corrective Direction, Heatr3 / RTV Corrective Direction, Brd4 / RTV Corrective Direction, P3h4 / RTV Corrective Direction, Pacsin3 / RTV Corrective Direction, Naa50 / RTV Corrective Direction, Lpar6 / RTV Corrective Direction, Ndrg1 / RTV Corrective Direction, Kntc1 / RTV Corrective Direction, Cdk11b / RTV Corrective Direction, Sumo1 / RTV Corrective Direction, Lsm4 / RTV Corrective Direction, Hmga2 / RTV Corrective Direction, Cstf1 / RTV Corrective Direction, Tes / RTV Corrective Direction, Sbno1 / RTV Corrective Direction, Unc119b / RTV Corrective Direction, Cfdp1 / RTV Corrective Direction, Sec61b: YES = protein abundance effect opposite to DYT/WT; settings: EV protein abundance; for RTV Corrective Direction: DYT + RTV (ritonavir) vs DYT, direction compared with DYT/WT; for DYT + RTV/DYT Cohen's d: ritonavir (RTV)-treated DYT vs DYT
Molecule,WT + ISRIB/WT Cohen's d (WT MEF EVs),RTV Corrective Direction (DYT-TOR1A MEF EVs),DYT + RTV/DYT Cohen's d (DYT-TOR1A MEF EVs)
B1,2.43,YES,5.74
B2,1.72,YES,3.88
B3,0.85,YES,11.94
B4,1.73,YES,10.89
B5,2.76,YES,4.78
B6,2.44,YES,9.12
B7,3.18,YES,1.91
B8,0.41,YES,6.02
B9,2.47,YES,4.23
B10,0.04,YES,3.45
B11,1.33,YES,3.64
